Test results: patent publication US20110135636A1 (SYMPHOGEN A S, published 2011)

Tests used:
[1] = target: T1, recombinant human EGFR extracellular domain with 6xHis (human, UniProt P00533 25-645); experiment: SPR competition, competitor Vectibix
T1 construct: In-house produced; also called 6xHis EGFR ECD; soluble human EGFR ECD; not shown: 6xHis tag
Protocol: (§1) SPR analysis was performed on a Biacore 3000 machine containing four flow cells. A CM5 Biacore chip was conjugated with 10,000 Resonance units (Ru) polyclonal anti-His antibody to flow cells 1-4 according to the manufacturer's instructions. […] Immediately after antigen injection the maximal binding of the Anti-EGFR mAb without competition was established in each flow cell during a reference run. Briefly 5 μl antibody at a concentration of 40 μg/ml was injected over all flow cells with captured EGFR followed by stripping of the antibody/antigen complex with a low pH acid wash (10 sec. contact time with 10 mM Glycine-HCl, pH2). After the determination of Anti-EGFR antibody maximal binding to each flow cell, a competition run was performed during the same Biacore cycle. Flow cells were first saturated with EGFR ECD antigen followed by injection of different reference antibodies or Anti-EGFR antibodies into separate flow cells using the same antigen saturating conditions as outlined above. This step was immediately followed by a second injection of Anti-EGFR antibody over the flow cell saturated with EGFR antigen and competition antibody to minimize the dissociation of either antigen or blocking antibody. Then the antibody/antigen complexes were stripped off with a low pH acid wash (10 sec. contact time with 10 mM Glycine-HCl, pH 2) and the whole cycle beginning with the reference run was repeated with a new Anti-EGFR antibody. The degree of inhibition of tested Anti-EGFR antibodies were determined by comparing the Ru max value of the individual Anti-EGFR antibody before and after competition by introduction of report points recorded two seconds before and after injection of each sample.

[2] = target: T1, recombinant human EGFR extracellular …; experiment: SPR competition, competitor 1277
Protocol: as §1

[3] = target: T1, recombinant human EGFR extracellular …; experiment: SPR competition, competitor 1260
Protocol: as §1

[4] = target: T1, recombinant human EGFR extracellular …; experiment: SPR competition, competitor Ab-3
Protocol: as §1

[5] = target: T1, recombinant human EGFR extracellular …; experiment: SPR competition, competitor Ab-10
Protocol: as §1

[6] = target: T1, recombinant human EGFR extracellular …; experiment: SPR competition, competitor 1030corr
Protocol: as §1

[7] = target: T1, recombinant human EGFR extracellular …; experiment: SPR competition, competitor ICR10
Protocol: as §1

[8] = target: T1, recombinant human EGFR extracellular …; experiment: SPR competition, competitor 1320
Protocol: as §1

[9] = target: T1, recombinant human EGFR extracellular …; experiment: SPR competition, competitor 1024
Protocol: as §1

[10] = target: T1, recombinant human EGFR extracellular …; experiment: SPR competition, competitor Ab-1
Protocol: as §1

[11] = target: T1, recombinant human EGFR extracellular …; experiment: SPR competition, competitor 1344
Protocol: as §1

[12] = target: T1, recombinant human EGFR extracellular …; experiment: SPR competition, competitor 1261
Protocol: as §1

[13] = target: T1, recombinant human EGFR extracellular …; experiment: SPR competition, competitor 1257
Protocol: as §1

[14] = target: T1, recombinant human EGFR extracellular …; experiment: SPR competition, competitor Ab-11
Protocol: as §1

[15] = target: T1, recombinant human EGFR extracellular …; experiment: SPR competition, competitor 1347
Protocol: as §1

[16] = target: T1, recombinant human EGFR extracellular …; experiment: SPR competition, competitor 1208
Protocol: as §1

[17] = target: T1, recombinant human EGFR extracellular …; experiment: SPR competition, competitor Ab-5
Protocol: as §1

[18] = target: T1, recombinant human EGFR extracellular …; experiment: SPR competition, competitor 1284
Protocol: as §1

[19] = target: T1, recombinant human EGFR extracellular …; experiment: SPR competition, competitor Erbitux
Protocol: as §1

[20] = target: T1, recombinant human EGFR extracellular …; experiment: SPR competition, competitor 1254
Protocol: as §1

[21] = target: T1, recombinant human EGFR extracellular …; experiment: SPR competition, competitor Vectibix; remark: listed apart in the source
Protocol: as §1

[22] = target: T1, recombinant human EGFR extracellular …; experiment: SPR competition, competitor Erbitux; remark: listed apart in the source
Protocol: as §1

[23] = target: T1, recombinant human EGFR extracellular …; experiment: SPR competition, competitor 992 corr
Protocol: as §1

Binder | % inhibition [1] [%] | % inhibition [2] [%] | % inhibition [3] [%] | % inhibition [4] [%] | % inhibition [5] [%] | % inhibition [6] [%] | % inhibition [7] [%] | % inhibition [8] [%] | % inhibition [9] [%] | % inhibition [10] [%] | % inhibition [11] [%] | % inhibition [12] [%] | % inhibition [13] [%] | % inhibition [14] [%] | % inhibition [15] [%] | % inhibition [16] [%] | % inhibition [17] [%] | % inhibition [18] [%] | % inhibition [19] [%] | % inhibition [20] [%] | also measured
antibody 1030 (antibody, human IgG1, kappa, V domains shown, Chimeric IgG1 kappa) VH: EVQLVESGGGLVKPGGSLKLSCAASGFTFSSYALSWVRQTPERRLEWVASISGVGSTYFPDSVKGRFTMSRDNARNILYLQMSSLRSEDTAMYYCARGSDGYFYAMDYWGQGTSVTVSS VL: DIVLTQSPASLAVSLGQRATISCRASKSVSTSGYSFMHWYQLKPGQPPKLLIYLASNLESGVPARFSGSGSGTDFTLNIHPVEEEDAATYYCQHSREFPLTFGGGTKLEIKR | 17 | 103 | 16 | 6 | 84 | 89 | 54 | 4 | -1 | 98 | 24 | 8 | 5 | -5 | 6 | 112 | 104 | 32 | -1 | 107 | % inhibition [21]: 16%; % inhibition [22]: -1%; % inhibition [23]: -3%
antibody 1024 (antibody, human IgG1, kappa, V domains shown, Chimeric IgG1 kappa) VH: QVQLQQPGAELVEPGGSVKLSCKASGYTFTSHWMHWVKQRPGQGLEWIGEINPSSGRNNYNEKFKSKATLTVDKSSSTAYMQFSSLTSEDSAVYYCVRYYGYDEAMDYWGQGTSVTVSS VL: DIVMTQAAFSNPVTLGTSASISCRSSKSLLHSNGITYLYWYLQKPGQSPQLLIYQMSNLASGVPDRFSSSGSGTDFTLRISRVEAEDVGVYYCAQNLELPYTFGGGTKLEIKR | 82 | -1 | 35 | 0 | -5 | 3 | -3 | 86 | 96 | 6 | 1 | -27 | 22 | -13 | 2 | -7 | 0 | -2 | 104 | 5 | % inhibition [21]: 102%; % inhibition [22]: 104%; % inhibition [23]: -58%
antibody 992 (antibody, human IgG1, kappa, V domains shown, Chimeric mouse/human IgG1 kappa; the VL entry includes the human kappa constant region) VH: EVQLQQPGSELVRPGASVKLSCKASGYTFTSYWMHWVKQRPGQGLEWIGNIYPGSRSTNYDEKFKSKATLTVDTSSSTAYMQLSSLTSEDSAVYYCTRNGDYYVSSGDAMDYWGQGTSVTVSS VL: DIQMTQTTSSLSASLGDRVTISCRTSQDIGNYLNWYQQKPDGTVKLLIYYTSRLHSGVPSRFSGSGSGTDFSLTINNVEQEDVATYFCQHYNTVPPTFGGGTKLEIKR | 125 | 110 | -10 | 7 | -4 | -18 | -4 | -38 | -55 | 99 | 9 | -13 | 16 | -3 | 7 | 109 | 1 | 6 | 90 | 128 | % inhibition [21]: 106%; % inhibition [22]: 90%; % inhibition [23]: 96%
